Assay results as given in publication PMC7440162 (Cell, 2020).

T1: PRTG ECD-Fc (human, UniProt Q2VWP7 36-949)
T1 sequence: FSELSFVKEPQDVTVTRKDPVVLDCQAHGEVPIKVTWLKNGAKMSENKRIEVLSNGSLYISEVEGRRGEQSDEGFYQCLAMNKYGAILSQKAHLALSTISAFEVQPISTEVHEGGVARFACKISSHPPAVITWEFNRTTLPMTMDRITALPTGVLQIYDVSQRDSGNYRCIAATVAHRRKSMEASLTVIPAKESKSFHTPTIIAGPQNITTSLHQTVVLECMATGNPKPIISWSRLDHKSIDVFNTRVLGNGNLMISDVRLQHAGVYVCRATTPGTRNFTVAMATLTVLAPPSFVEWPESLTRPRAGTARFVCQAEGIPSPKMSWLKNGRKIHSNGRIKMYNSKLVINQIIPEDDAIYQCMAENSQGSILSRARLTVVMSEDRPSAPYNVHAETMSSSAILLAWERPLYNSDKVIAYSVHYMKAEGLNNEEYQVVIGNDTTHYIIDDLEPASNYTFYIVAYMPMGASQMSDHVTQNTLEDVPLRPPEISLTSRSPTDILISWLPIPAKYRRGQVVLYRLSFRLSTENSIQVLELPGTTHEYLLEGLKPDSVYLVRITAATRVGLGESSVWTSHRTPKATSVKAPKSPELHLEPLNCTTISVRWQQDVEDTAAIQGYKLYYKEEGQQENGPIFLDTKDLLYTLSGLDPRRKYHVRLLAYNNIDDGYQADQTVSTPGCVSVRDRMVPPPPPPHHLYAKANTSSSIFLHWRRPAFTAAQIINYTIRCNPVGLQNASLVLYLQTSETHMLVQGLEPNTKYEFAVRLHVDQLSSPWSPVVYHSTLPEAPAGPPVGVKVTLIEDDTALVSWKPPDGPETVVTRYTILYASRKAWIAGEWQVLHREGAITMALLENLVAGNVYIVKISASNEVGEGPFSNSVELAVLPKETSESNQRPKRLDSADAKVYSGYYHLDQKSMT

T2: human ISLR2 ECD-Fc (human, UniProt Q6UXK2 19-589, biotin on the AviTag (as SPR ligand))
T2 sequence: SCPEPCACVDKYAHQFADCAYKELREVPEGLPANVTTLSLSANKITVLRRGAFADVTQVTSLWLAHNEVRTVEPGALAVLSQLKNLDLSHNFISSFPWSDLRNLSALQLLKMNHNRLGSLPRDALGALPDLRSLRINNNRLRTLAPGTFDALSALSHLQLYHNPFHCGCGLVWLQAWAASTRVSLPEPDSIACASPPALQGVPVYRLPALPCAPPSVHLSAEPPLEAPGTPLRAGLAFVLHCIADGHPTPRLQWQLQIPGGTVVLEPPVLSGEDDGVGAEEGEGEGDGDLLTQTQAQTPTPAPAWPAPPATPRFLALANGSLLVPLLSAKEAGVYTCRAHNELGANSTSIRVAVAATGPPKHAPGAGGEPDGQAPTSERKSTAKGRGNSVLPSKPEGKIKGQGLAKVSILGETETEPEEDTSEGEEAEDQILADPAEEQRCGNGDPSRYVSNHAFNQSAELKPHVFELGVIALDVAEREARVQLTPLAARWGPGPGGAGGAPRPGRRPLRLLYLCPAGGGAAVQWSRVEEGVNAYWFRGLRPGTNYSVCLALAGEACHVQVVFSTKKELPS

T3: PTPRS ECD-Fc (human, UniProt Q13332 30-1282)
T3 sequence: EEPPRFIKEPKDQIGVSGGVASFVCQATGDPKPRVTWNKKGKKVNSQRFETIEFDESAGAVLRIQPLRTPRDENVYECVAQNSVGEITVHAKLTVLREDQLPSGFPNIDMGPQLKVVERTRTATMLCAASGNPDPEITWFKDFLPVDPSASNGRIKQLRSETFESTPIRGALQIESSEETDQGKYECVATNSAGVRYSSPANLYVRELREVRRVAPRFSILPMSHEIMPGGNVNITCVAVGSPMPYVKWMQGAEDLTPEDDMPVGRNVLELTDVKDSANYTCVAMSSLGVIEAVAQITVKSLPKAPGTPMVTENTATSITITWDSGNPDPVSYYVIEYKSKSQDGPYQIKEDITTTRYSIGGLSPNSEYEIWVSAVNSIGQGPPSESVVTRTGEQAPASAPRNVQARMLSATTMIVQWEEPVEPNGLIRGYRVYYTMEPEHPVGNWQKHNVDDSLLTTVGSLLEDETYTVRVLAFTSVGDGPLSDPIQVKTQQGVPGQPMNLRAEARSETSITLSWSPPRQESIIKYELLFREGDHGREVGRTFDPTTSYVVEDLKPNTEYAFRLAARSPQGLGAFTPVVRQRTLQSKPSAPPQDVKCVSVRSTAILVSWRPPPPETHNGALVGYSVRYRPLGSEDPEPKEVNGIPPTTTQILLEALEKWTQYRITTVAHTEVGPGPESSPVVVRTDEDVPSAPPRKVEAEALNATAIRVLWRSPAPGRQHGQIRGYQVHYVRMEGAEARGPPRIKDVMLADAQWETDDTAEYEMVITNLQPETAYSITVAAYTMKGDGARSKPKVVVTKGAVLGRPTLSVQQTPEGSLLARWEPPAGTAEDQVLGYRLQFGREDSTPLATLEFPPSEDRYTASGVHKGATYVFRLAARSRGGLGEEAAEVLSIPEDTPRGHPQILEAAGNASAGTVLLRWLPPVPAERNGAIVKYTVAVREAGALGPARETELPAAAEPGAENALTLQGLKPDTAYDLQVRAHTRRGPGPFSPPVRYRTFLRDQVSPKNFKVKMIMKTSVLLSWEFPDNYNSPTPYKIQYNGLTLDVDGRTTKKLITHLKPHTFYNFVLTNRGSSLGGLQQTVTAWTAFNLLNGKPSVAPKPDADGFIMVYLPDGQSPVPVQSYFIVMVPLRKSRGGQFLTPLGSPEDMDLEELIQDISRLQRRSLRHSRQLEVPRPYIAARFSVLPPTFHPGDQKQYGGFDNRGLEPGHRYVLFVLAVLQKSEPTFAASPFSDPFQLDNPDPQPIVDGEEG

B1: WFIKKN2-Fc (Fc fusion)
chain: LPPIRYSHAGICPNDMNPNLWVDAQSTCRRECETDQECETYEKCCPNVCGTKSCVAARYMDVKGKKGPVGMPKEATCDHFMCLQQGSECDIWDGQPVCKCKDRCEKEPSFTCASDGLTYYNRCYMDAEACSKGITLAVVTCRYHFTWPNTSPPPPETTMHPTTASPETPELDMAAPALLNNPVHQSVTMGETVSFLCDVVGRPRPEITWEKQLEDRENVVMRPNHVRGNVVVTNIAQLVIYNAQLQDAGIYTCTARNVAGVLRADFPLSVVRGHQAAATSESSPNGTAFPAAECLKPPDSEDCGEEQTRWHFDAQANNCLTFTFGHCHRNLNHFETYEACMLACMSGPLAACSLPALQGPCKAYAPRWAYNSQTGQCQSFVYGGCEGNGNNFESREACEESCPFPRGNQRCRACKPRQKLVTSFCRSDFVILGRVSELTEEPDSGRALVTVDEVLKDEKMGLKFLGQEPLEVTLLHVDWACPCPNVTVSEMPLIIMGEVDGGMAMLRPDSFVGASSARRVRKLREVMHKKTCDVLKEFLGLH
modifications: biotin on the AviTag (as SPR ligand)
B2: LTF-Fc (Fc fusion)
chain: GRRRSVQWCAVSQPEATKCFQWQRNMRKVRGPPVSCIKRDSPIQCIQAIAENRADAVTLDGGFIYEAGLAPYKLRPVAAEVYGTERQPRTHYYAVAVVKKGGSFQLNELQGLKSCHTGLRRTAGWNVPIGTLRPFLNWTGPPEPIEAAVARFFSASCVPGADKGQFPNLCRLCAGTGENKCAFSSQEPYFSYSGAFKCLRDGAGDVAFIRESTVFEDLSDEAERDEYELLCPDNTRKPVDKFKDCHLARVPSHAVVARSVNGKEDAIWNLLRQAQEKFGKDKSPKFQLFGSPSGQKDLLFKDSAIGFSRVPPRIDSGLYLGSGYFTAIQNLRKSEEEVAARRARVVWCAVGEQELRKCNQWSGLSEGSVTCSSASTTEDCIALVLKGEADAMSLDGGYVYTAGKCGLVPVLAENYKSQQSSDPDPNCVDRPVEGYLAVAVVRRSDTSLTWNSVKGKKSCHTAVDRTAGWNIPMGLLFNQTGSCKFDEYFSQSCAPGSDPRSNLCALCIGDEQGENKCVPNSNERYYGYTGAFRCLAENAGDVAFVKDVTVLQNTDGNNNEAWAKDLKLADFALLCLDGKRKPVTEARSCHLAMAPNHAVVSRMDKVERLKQVLLHQQAKFGRNGSDCPDKFCLFQSETKNLLFNDNTECLARLHGKTTYEKYLGPQYVAGITNLKKCSTSPLLEACEFLRK
modifications: biotin on the AviTag (as SPR ligand)
B3: IL1RAPL1 ECD-Fc (Fc fusion)
chain: LKVVTKRGSADGCTDWSIDIKKYQVLVGEPVRIKCALFYGYIRTNYSLAQSAGLSLMWYKSSGPGDFEEPIAFDGSRMSKEEDSIWFRPTLLQDSGLYACVIRNSTYCMKVSISLTVGENDTGLCYNSKMKYFEKAELSKSKEISCRDIEDFLLPTREPEILWYKECRTKTWRPSIVFKRDTLLIREVREDDIGNYTCELKYGGFVVRRTTELTVTAPLTDKPPKLLYPMESKLTIQETQLGDSANLTCRAFFGYSGDVSPLIYWMKGEKFIEDLDENRVWESDIRILKEHLGEQEVSISLIVDSVEEGDLGNYSCYVENGNGRRHASVLLHKRELMYT
modifications: biotin on the AviTag (as SPR ligand)
B4: ICAM5 ECD-Fc (Fc fusion)
chain: EPFWADLQPRVAFVERGGSLWLNCSTNCPRPERGGLETSLRRNGTQRGLRWLARQLVDIREPETQPVCFFRCARRTLQARGLIRTFQRPDRVELMPLPPWQPVGENFTLSCRVPGAGPRASLTLTLLRGAQELIRRSFAGEPPRARGAVLTATVLARREDHGANFSCRAELDLRPHGLGLFENSSAPRELRTFSLSPDAPRLAAPRLLEVGSERPVSCTLDGLFPASEARVYLALGDQNLSPDVTLEGDAFVATATATASAEQEGARQLVCNVTLGGENRETRENVTIYSFPAPLLTLSEPSVSEGQMVTVTCAAGAQALVTLEGVPAAVPGQPAQLQLNATENDDRRSFFCDATLDVDGETLIKNRSAELRVLYAPRLDDSDCPRSWTWPEGPEQTLRCEARGNPEPSVHCARSDGGAVLALGLLGPVTRALSGTYRCKAANDQGEAVKDVTLTVEYAPALDSVGCPERITWLEGTEASLSCVAHGVPPPDVICVRSGELGAVIEGLLRVAREHAGTYRCEATNPRGSAAKNVAVTVEYGPRFEEPSCPSNWTWVEGSGRLFSCEVDGKPQPSVKCVGSGGATEGVLLPLAPPDPSPRAPRIPRVLAPGIYVCNATNRHGSVAKTVVVSAESPPEMDESTCPSHQTWLEGAEASALACAARGRPSPGVRCSREGIPWPEQQRVSREDAGTYHCVATNAHGTDSRTVTVGVEYRPVVAELAASPPGGVRPGGNFTLTCRAEAWPPAQISWRAPPGALNIGLSSNNSTLSVAGAMGSHGGEYECAATNAHGRHARRITVRVAGPW
modifications: biotin on the AviTag (as SPR ligand)

Experiments:
Experiment in all cases: SPR
[1] = biological target: T1, PRTG ECD-Fc
[2] = biological target: T2, human ISLR2 ECD-Fc
[3] = biological target: T3, PTPRS ECD-Fc

Binder | binding result [1] | binding result [2] | binding result [3]
B1 | binds | binds | 
B2 | binds |  | 
B3 |  |  | binds
B4 | binds |  | 
